The values below come from paper PMC7375812, “Molecular determinants of large cargo transport into the nucleus” (eLife, 2020).

The data set concerns the molecule itself. As to the kind of experiment: negative-stain electron microscopy; purified (and labelled) capsids adsorbed on glow-discharged carbon-coated grids, 2% uranyl acetate.

B1: MS2^S37P capsid (bacteriophage MS2 coat protein with S37P and T15C) (natural protein)
chain: MASNFTQFVLVDNGGCGDVTVAPSNFANGVAEWISSNPRSQAYKVTCSVRQSSAQNRKYTIKVEVPKVATQTVGGVELPVAAWRSYLNMELTIPIFATNSDCELIVKAMQGLLKDGNPIPSAIAANSGIY
modifications: the introduced cysteine (T15C) coupled by maleimide to Alexa Fluor 647 or to the NLS peptide Mal-…, in a share of the copies each
notes: coat protein of bacteriophage MS2; The NLS peptide is a branch on the cysteine, not part of the chain; source: E. coli BL21 AI, purified (PEI, ammonium sulphate, tangential flow, size exclusion after labelling); copies: 60
With B1, the binding result is “binds”.

B2: MS2 capsid (wild-type bacteriophage MS2 coat protein with T15C) (natural protein)
chain: MASNFTQFVLVDNGGCGDVTVAPSNFANGVAEWISSNSRSQAYKVTCSVRQSSAQNRKYTIKVEVPKVATQTVGGVELPVAAWRSYLNMELTIPIFATNSDCELIVKAMQGLLKDGNPIPSAIAANSGIY
modifications: the introduced cysteine (T15C) coupled by maleimide to Alexa Fluor 647 or to the NLS peptide Mal-…, in a share of the copies each
notes: coat protein of bacteriophage MS2; The NLS peptide is a branch on the cysteine, not part of the chain; source: E. coli BL21 AI, purified (PEI, ammonium sulphate, tangential flow, size exclusion after labelling); copies: 180
For the protein B2, the binding result is “binds”.
